Measurements from PMC11717252, “Biophysical and biochemical evidence for the role of acetate kinases (AckAs) in an acetogenic pathway in pathogenic spirochetes” (PLOS ONE, 2025).
“And” between values parts separate entries of the source, which are not always exact repeats. Equal values may be shown once.

Key:
[1] = target: TV0924 (TREVI0001_0924), acetate kinase from Treponema vincentii (Treponema vincentii); test: mass photometry; TwoMP (Refeyn), sample diluted in PBS, ca. 10 nM in the droplet, 60-s movie; self-association
[2] = target: TV0924 (TREVI0001_0924), acetate kinase from Treponema vincentii (Treponema vincentii); test: AUC; sedimentation velocity, 20°C, Buffer A (20 mM HEPES, 0.1 M NaCl, pH 7.5, 2 mM n-octyl-β-D-glucopyranoside), 50,000 rpm, absorbance at 280 nm, c(s) analysis in SEDFIT; self-association
[3] = target: T1, TV0924 (TREVI0001_0924; rTV0924; TvAckA) (Treponema vincentii, UniProt C8PR54); test: X-ray crystal structure, […] Å; format: binding; details: active site; co-crystallised with 5 mM ADP and 5 mM MgCl2, pH 5.5; modelled as AMP, may be hydrolysed ADP or ADP with disordered beta-phosphate
T1 construct: gene ackA; homodimer, calculated dimer mass 104,820 g/mol
T1 sequence (C8PR54 1-449): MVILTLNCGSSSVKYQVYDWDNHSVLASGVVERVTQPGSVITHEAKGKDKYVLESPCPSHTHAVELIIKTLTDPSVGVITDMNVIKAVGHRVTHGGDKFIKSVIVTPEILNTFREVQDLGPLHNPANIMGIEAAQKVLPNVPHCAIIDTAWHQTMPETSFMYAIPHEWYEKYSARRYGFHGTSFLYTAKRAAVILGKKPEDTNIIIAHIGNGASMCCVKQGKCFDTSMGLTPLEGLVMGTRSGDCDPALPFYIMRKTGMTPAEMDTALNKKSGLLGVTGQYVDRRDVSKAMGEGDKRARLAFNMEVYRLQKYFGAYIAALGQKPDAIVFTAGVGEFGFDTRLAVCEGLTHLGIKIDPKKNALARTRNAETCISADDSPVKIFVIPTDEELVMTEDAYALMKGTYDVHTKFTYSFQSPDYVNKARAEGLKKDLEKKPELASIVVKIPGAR

purified protein [4] = substrate: CC(=O)OP(=O)(O)O; test: purified protein; format: biochemical, Treponema pallidum; details: ATP-forming direction, ADP up to 5 mM, 20 mM MgCl2, 100 mM HEPES pH 7.5, 100 mM NaCl, 37 °C
purified protein [5] = substrate: Nc1ncnc2c1ncn2[C@@H]1O[C@H](COP(=O)(O)OP(=O)(O)O)[C@@H](O)[C@H]1O; test: purified protein; format: biochemical, Treponema pallidum; details: ATP-forming direction, acetyl phosphate up to 10 mM, 20 mM MgCl2, 100 mM HEPES pH 7.5, 100 mM NaCl, 37 °C
[6] = target: the molecule itself; test: mass photometry; TwoMP (Refeyn), sample diluted in PBS, ca. 10 nM in the droplet, 60-s movie; self-association
[7] = target: the molecule itself; test: AUC; sedimentation velocity, 20°C, Buffer A (20 mM HEPES, 0.1 M NaCl, pH 7.5, 2 mM n-octyl-β-D-glucopyranoside), 50,000 rpm, absorbance at 280 nm, c(s) analysis in SEDFIT; self-association
purified protein [8] = substrate: CC(=O)OP(=O)(O)O; test: purified protein; format: biochemical, Treponema vincentii; details: ATP-forming direction, ADP up to 5 mM, 20 mM MgCl2, 100 mM HEPES pH 7.5, 100 mM NaCl, 37 °C
purified protein [9] = substrate: Nc1ncnc2c1ncn2[C@@H]1O[C@H](COP(=O)(O)OP(=O)(O)O)[C@@H](O)[C@H]1O; test: purified protein; format: biochemical, Treponema vincentii; details: ATP-forming direction, acetyl phosphate up to 10 mM, 20 mM MgCl2, 100 mM HEPES pH 7.5, 100 mM NaCl, 37 °C

TV0924 (TREVI0001_0924), acetate kinase from Treponema vincentii (enzyme)
stoichiometry N [1]: 2 | stoichiometry N [2]: 2

Nc1ncnc2c1ncn2[C@@H]1O[C@H](COP(=O)(O)O)[C@@H](O)[C@H]1O [AMP]
X-ray crystal structure, 1.30 Å [3]: The nucleotide was modeled as AMP, and we refer to this structure below as TV0924‧AMP.

B1: TP0476, acetate kinase from Treponema pallidum (enzyme, UniProt O83489 1-448, looked up)
chain: MIILTLNCGSSSVKYQVYNWTERAVIAVGVVERVTQAGSVITHEVHGRENHVRESPCPTHTEAVQLIISTLTDAHVGVISDMSLIKAVGHRVLHAADRFVKSVVVTPDVLETFRSVQDLGPLHNPANIRGIEAAQAVIPSVPHCAIMDTAWHQTMPEASFMYAVPRQWYEEYAVRRYGFHGTSFLYTAKRASVILKKRAEDTNIIIAHIGNGASMCCVKNGVSFDTSMGITPLEGLIMGTRCGDCDPALAFYIMRKTGMSVSDIDTTLNKQSGLLGITGKYVDRRDVCAAMKNGDALARLAFDMEVHRIRKYFGAYVAALGKQPDALVFTAGVGEMCCDVRAAACAGLEHLGIRLDARKNELARTRNAETEISTDDSPVRILVIPTDEELVMTEDTYALMQGTYDVHTRFTYSFQDPTYVNKARAAGLKRDLEKNPALATIVVPRLDT
notes: Acetate kinase TP0476 of Treponema pallidum, amino acid residues 1-448; The dominant species is a dimer; monomer, trimer, tetramer and aggregates were also seen; also called rTP0476; TpAckA
Km (purified protein [4]): 380 ± 19 µM | kcat (purified protein [4]): 51.5 ± 0.8 s⁻¹ | kcat/Km (purified protein [4]): 137000 ± 11000 M⁻¹ s⁻¹ | Km (purified protein [5]): 650 ± 70 µM | kcat (purified protein [5]): 63.3 ± 1.5 s⁻¹ | kcat/Km (purified protein [5]): 90000 ± 10000 M⁻¹ s⁻¹ | stoichiometry N [6]: 3 and 4 | stoichiometry N [7]: 2

B2: TV0924 (TREVI0001_0924; rTV0924; TvAckA) (Treponema vincentii ATCC 35580) (protein)
chain: T1 sequence (C8PR54 1-449)
notes: homodimer, calculated dimer mass 104,820 g/mol
Km (purified protein [8]): 320 ± 30 µM | kcat (purified protein [8]): 3900 ± 300 s⁻¹ | kcat/Km (purified protein [8]): 1.19e+07 ± 400000 M⁻¹ s⁻¹ | Km (purified protein [9]): 650 ± 30 µM | kcat (purified protein [9]): 4800 ± 400 s⁻¹ | kcat/Km (purified protein [9]): 7.5e+06 ± 400000 M⁻¹ s⁻¹
